Reference: patent publication US20110124572A1, “SYNDECAN-4 IS A REGULATOR OF RAC1-GTP” (priority 2008, published 2011)
Numbering of substitutions follows the chain as printed. “And” between values parts separate entries of the source, which are not always exact repeats. Equal values may be shown once.

B1: wt-syndecan-4: human syndecan-4 with GFP inserted at position 131, stably expressed in MCF-7 cells (protein)
chain: ESIRETEVIDPQDLLEGRYFSGALPDDEDVVGPGQESDDFELSGSGDLDDLEDSMIGPEVVHPLVPLDNHIPERAGSGSQVPTEPKKLEENEVIPKRISPVEESEDVSNKVSMSSTVQGSNIFERTEVLAALIVGGIVGILFAVFLILLLMYRMKKKDEGSYDLGKKPIYKKAPTNEFYA
modifications: left off: large carriers
notes: human syndecan-4 with GFP inserted at position 131, stably expressed in MCF-7 cells
B2: Ser179Ala: phosphodefective Ser179 to Ala mutant of human syndecan-4-GFP, expressed in MCF-7 cells (protein, UniProt P31431 19-198, looked up, variant S179A)
Syndecan-4: B1 chain with S161A
modifications: GFP inserted at position 131
notes: phosphodefective Ser179 to Ala mutant of human syndecan-4-GFP, expressed in MCF-7 cells
B3: Ser179Glu: phosphomimetic Ser179 to Glu mutant of human syndecan-4-GFP, expressed in MCF-7 cells (protein, UniProt P31431 19-198, looked up, variant S179E)
Syndecan-4: B1 chain with S161E
modifications: GFP inserted at position 131
notes: phosphomimetic Ser179 to Glu mutant of human syndecan-4-GFP, expressed in MCF-7 cells

Tests used:
[1] = tested on: Rac1; experiment: Rac1 GTPase pulldown assay (Rac1-GTP level); format: cell-based, human; settings: for relative Rac1-GTP level: relative to non-treated wt-syndecan-4; for reduction of activated Rac1 (GTP-Rac1) level: Gö6976 treatment
Experimental: (§1) Rac1 activity was characterised by applying RAC-activation kit purchased from Millipore (Upstate) and it was used according to the manufacturer's prescription. Briefly, p21-binding domain of PAK-1 was fused to agarose beads, which specifically binds to and precipitates Rac-GTP and Cdc42-GTP from cell lysates. Cells were harvested at 70% confluency of 25 ml flasks. The wild type Syndecan-4, Ser179Ala and Ser179Glu cells were treated for 60 minutes with 1 μM PMA (Sigma-Aldrich), or 500 nM rottlerin (Sigma-Aldrich), or 10 nM Gö6976 (Biosource, Camarillo, Calif., USA). The active Rac1 was detected by Western blotting using mouse anti-Rac1 antibody (Upstate). To test whether GST-Pak1-Rac/Cdc42-binding domain could pull syndecan-4 down, the blot was probed with rabbit polyclonal anti-syndecan-4 or mouse monoclonal anti-GFP antibody.

[2] = target: T1, Tiam-1 (Homo sapiens, UniProt Q13009); experiment: Immunoprecipitation with anti-Tiam-1; format: binding; settings: for Rac1 in the Tiam-1 precipitate: lysate of cells expressing the variant
T1 construct: we tested whether syndecan-4 can be co-immunoprecipitated by anti-Tiam-1; endogenous in cells; host or cells: MCF-7 lines expressing wt, Ser179Ala or Ser179Glu syndecan-4-GFP (RIPA lysates, GDP- or γ-S-GTP-saturated)
Experimental: In brief, 70% confluent cultures of 25 mL flask were detached, pelleted and following 2 times washing with PBS. The pellet were lysed in RIPA buffer then centrifuged and the supernatant was pre-cleared by addition of 5 μL of protein A/G-sepharose beads slurry (Pierce) for 2 hours, then the supernatant was incubated with the antibody of interest for 24 hours. 10 μL of protein A/G slurry was added for 2 hours, collected by pulse centrifugation, washed 3 times with lysis buffer, resuspended in 2×SDS loading buffer subjected to SDS-PAGE, followed by immunoblotting with the appropriate antibodies.
Since Tiam-1 is a Rac1-GEF (GTP exchange factor) and it could be pulled down by PAK-PKB (Mendoza-Naranjo et al., 2006) we tested whether syndecan-4 can be co-immunoprecipitated by anti-Tiam-1. The syndecan-4 chimeras were detected by anti-syndecan-4 and anti-GFP antisera at 55 kDa and 90 kDa length, which were correspondent to the monomer and dimmer forms, respectively. Because the co-sedimentation of syndecan-4 by PAK-PKB was GDP-GTP dependent we tested if the GDP or GTP had effect for the amount of the anti-Tiam-1-co-immunoprecipitated syndecan-4 forms.
PDZ domain of Tiam-1 was reported to bind peptides containing amino acid sequence of FYA (Songyang et al., 1997) that is part of the cytoplasmic segment of syndecan-4. Therefore syndecan-4 seemed a good candidate to interact with Tiam-1. In the immunoprecipitate of Tiam-1 syndecan-4 variants were detected by anti-syndecan-4 or anti-GFP antisera at 55 kDa length, which was correspondent to the monomer forms. There was no significant difference in the binding of Tiam-1 and syndecan-4 variants in the GDP or γ-S GTP saturated cases.
Considering that phospho-syndecan-4 down-regulates the Rac1 activity consequently Rac1 was also tested in the Tiam-1 precipitate to study the nature of inhibition. If the Rac1 activity were regulated by direct interaction of syndecan-4 we might expect a trapped intermedier as it was found in the case of Brefeldin A (Renault et al., 2003).

[3] = tested on: MCF-7 cells; experiment: Scratch-wound assay; format: cell-based, human; settings: for time to closure of the scratch gap: fibronectin, scratched at 80% confluence
Experimental: (§2) The MCF-7 breast adenocarcinoma cells were obtained from ATCC, cultured in DMEM:F12 (Cambrex, Walkersville, Md., USA) supplemented with 10% fetal bovine serum (FBS) (Gibco, Bethesda, Md., USA), otherwise stated. The stably transfected cell lines were propagated in DMEM:F12 medium supplemented with 10% FBS and 200 μg/ml G418 (Cambrex, Walkersville, Md., USA). The cell lines were seeded onto glass coverslips or plastic dishes coated for 2 h with 10 μg/ml fibronectin (Sigma-Aldrich, St. Louis, Mo., USA). Scratch-wound assays were performed on stable transfected Syndecan-4 wild, Ser179Ala and Ser179Glu cells at 80% confluency. The cultures were scratched with a sterile P10 pipette tip 3-4 times in parallel lines. Images were taken 12, 24, 36 and 48 h following wounding.
The wt-syndecan-4, Ser179Ala, and Ser179Glu lines were tested how they close the scratched wound on fibronectin substratum. At 80% confluence the cultures were scratch-wounded and healing was monitored. Still images were captured at the indicated time points (FIG. 1). In monolayers of the wt-syndecan-4 and the Ser179Ala lines the wounds healed from the edges, i.e. progenies of cell division narrowed the scratch but kept tight contact with the cell layer. […] The gaps closed in every case almost at the same time, in 42 hour. There was no difference in the growth rate of the different lines measured by SRB assay (data not shown).

[4] = tested on: MCF-7 cells; experiment: Cell migration assay (time-lapse) on fibronectin; format: cell-based, human; settings: MCF-7 line expressing the syndecan-4 variant, fibronectin
Experimental: as §2
In the cell migration assay 60% confluent MCF7 cells or the stably transfected lines were stimulated by 1 μM phorbol-12-myristate-13-acetate (PMA; from Sigma-Aldrich St. Louis, Mo., USA), otherwise stated. The images were taken using 10×, 20×0.3 objective at 3-min intervals for 2 h using inverted microscope (Leica) and organized into time-lapse movies in Adobe ImageReady® v. 8.
Results of the previous scratch-wound assay gave a hint that the Ser179Glu cells gained a migratory phenotype. […]

[5] = tested on: GTP-Rac/Cdc42-PAK complex; experiment: Pull-down of syndecan-4 by Rac1/CDC42-binding domain of PAK; design: species or system human; settings: PAK-PKB pull-down, no γ-S GTP
Experimental: as §1
We tested whether the protein complex pulled down with the Rac1/CDC 42-binding domain of PAK (PAK-PKB) used in the Rac1 assay contained syndecan-4. Parallel filter of the Rac1 assay was probed with anti-syndecan-4 or anti-GFP antisera. The syndecan-4-GFP monomers migrating with 55 kDa relative electrophoretic mobility gave strong signals (FIG. 6). The amount of pulled-down syndecan-4 was in accordance with Rac1 level detected in the different syndecan-4 constructs (FIG. 6). […] When γ-S GTP was applied to the cell lysates to equalize the pulled-down Rac1-GTP level there was no difference in the amount of pulled-down syndecan-4 variants (FIG. 6). So, the affinity of the different syndecan-4 mutants is the same to the GTP-Rac/Cdc42-PAK complex. […]
We tested syndecan-4 whether it was pulled down by the Rac1/CDC 42-binding domain of PAK (PAK-PKB) used in the Rac1 assay. The syndecan-4-GFP monomers were detected as a 55 kDa relative electrophoretic mobility band probed with anti-syndecan-4 or anti-GFP antisera. […] The amount of pulled-down syndecan-4 was in accordance with Rac1 level detected in the different syndecan-4 constructs (FIG. 6). […]

T1 sequence (Q13009 whole entry): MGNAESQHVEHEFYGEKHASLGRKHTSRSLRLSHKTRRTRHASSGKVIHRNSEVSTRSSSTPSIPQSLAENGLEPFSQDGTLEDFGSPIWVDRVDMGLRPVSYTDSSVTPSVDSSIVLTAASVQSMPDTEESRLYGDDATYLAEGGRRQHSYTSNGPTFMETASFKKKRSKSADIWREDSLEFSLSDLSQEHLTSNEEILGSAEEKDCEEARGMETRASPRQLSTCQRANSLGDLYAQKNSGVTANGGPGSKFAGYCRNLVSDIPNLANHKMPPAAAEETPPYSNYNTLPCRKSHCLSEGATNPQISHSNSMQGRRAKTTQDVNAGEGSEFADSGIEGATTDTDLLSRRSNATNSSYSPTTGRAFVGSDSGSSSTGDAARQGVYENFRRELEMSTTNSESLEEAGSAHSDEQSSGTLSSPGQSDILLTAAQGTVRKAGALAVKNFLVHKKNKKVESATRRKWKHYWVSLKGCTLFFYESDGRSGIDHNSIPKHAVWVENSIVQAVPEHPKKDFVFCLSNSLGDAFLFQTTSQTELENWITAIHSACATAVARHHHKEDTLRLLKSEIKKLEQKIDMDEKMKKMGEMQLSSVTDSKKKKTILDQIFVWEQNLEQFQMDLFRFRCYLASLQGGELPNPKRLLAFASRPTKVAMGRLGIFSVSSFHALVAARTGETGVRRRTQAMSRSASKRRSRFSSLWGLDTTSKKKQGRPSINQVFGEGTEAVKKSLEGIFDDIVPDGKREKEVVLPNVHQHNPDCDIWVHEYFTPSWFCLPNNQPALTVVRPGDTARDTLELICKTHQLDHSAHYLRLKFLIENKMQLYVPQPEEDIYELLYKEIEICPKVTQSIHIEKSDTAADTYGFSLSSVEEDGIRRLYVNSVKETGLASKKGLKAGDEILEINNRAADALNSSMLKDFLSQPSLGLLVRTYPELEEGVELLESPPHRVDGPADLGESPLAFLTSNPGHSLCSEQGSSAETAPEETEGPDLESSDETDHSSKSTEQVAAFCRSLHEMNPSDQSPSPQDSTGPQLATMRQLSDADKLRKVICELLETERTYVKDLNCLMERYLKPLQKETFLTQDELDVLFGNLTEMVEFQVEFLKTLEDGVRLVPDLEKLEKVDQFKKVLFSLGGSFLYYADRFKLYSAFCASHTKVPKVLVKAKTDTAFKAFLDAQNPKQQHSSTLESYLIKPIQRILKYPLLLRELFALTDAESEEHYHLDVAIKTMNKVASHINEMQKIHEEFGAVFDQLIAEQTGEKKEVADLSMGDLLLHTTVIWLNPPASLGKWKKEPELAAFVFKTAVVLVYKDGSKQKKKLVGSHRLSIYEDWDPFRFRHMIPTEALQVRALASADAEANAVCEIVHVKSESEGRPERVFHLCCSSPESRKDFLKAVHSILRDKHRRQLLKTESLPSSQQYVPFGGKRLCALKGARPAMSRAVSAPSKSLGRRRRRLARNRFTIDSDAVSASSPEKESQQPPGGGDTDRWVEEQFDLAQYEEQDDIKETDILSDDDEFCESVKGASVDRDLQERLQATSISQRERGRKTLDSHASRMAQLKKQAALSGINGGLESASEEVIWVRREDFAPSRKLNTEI

| Molecule | relative Rac1-GTP level ([1]; 10 nM Gö6976 60 min) | relative Rac1-GTP level ([1]; 1 μM PMA 60 min) | reduction of activated Rac1 (GTP-Rac1) level [1] [fold] | relative Rac1-GTP level ([1]; nt (non-treated)) | syndecan-4 form co-immunoprecipitated by anti-Tiam-1 ([2]; cell lysate saturated by GDP) | Rac1 in the Tiam-1 precipitate [2] | time to closure of the scratch gap [3] [h] | migration ([4]; 1 μM PMA) | amount of pulled-down syndecan-4, less than from the Ser179Ala line [5] | amount of pulled-down syndecan-4, more than the wt-syndecan-4 [5] | decrease of the Rac1-GTP level ([1]; expression of the variant, untreated) [fold] | syndecan-4 form co-immunoprecipitated by anti-Tiam-1 ([2]; γ-S GTP saturated lysate) | cell motility in the scratched area ([3]; by 12 hours following wounding) | migration ([4]; nt (non-treated)) [μm/min] | amount of pulled-down syndecan-4 [5] |
| --- | --- | --- | --- | --- | --- | --- | --- | --- | --- | --- | --- | --- | --- | --- | --- |
| B1 | 0.25 ± 0.03 | 0.25 and 0.25 ± 0.05 | 4.2±0.4 | 1 | dominant | observed | 42 | 0.3±0.1 μm/min and 0.3 μm/min | approximately 20% |  |  |  |  |  |  |
| B2 | 1±0.1 and 1 ± 0.01 | 0.46 ± 0.05 |  | 1.9±0.15 | dominant | observed | 42 |  |  | approximately 20% |  |  |  |  |  |
| B3 | 0.06 ± 0.02 | 0.9±0.2 and 0.95 ± 0.06 | 16±2 | 0.6±0.1 |  |  | 42 |  |  |  | 1.5 | detected abundantly | enhanced cell motility | 0.4±0.1 | hardly detectable |
